According to PMC6797804, “Histone H3K23-specific acetylation by MORF is coupled to H3K14 acylation” (Nature Communications, 2019):
Ends that are not written are not given here. * marks the point of attachment. Crotonyl(E) = C/C=C/C(=O)*; Butyryl = CCCC(=O)*

T1: MORF DPF domain (residues 211–322) F287A (human, UniProt Q8WYB5 211-322, F287A)
T1 construct: MORF (KAT6B) double PHD finger (DPF), residues 211–322; also called MORFDPF F287A mutant; source: E. coli Rosetta2 (DE3) pLysS, purified (glutathione Sepharose 4B); 15N-labeled
T1 sequence (looked up): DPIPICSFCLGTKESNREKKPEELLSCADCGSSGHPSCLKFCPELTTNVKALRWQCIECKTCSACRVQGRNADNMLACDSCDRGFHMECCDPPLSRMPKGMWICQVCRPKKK

T2: MORF DPF domain (residues 211–322) F218A (human, UniProt Q8WYB5 211-322, F218A)
T2 construct: MORF (KAT6B) double PHD finger (DPF), residues 211–322; also called MORFDPF F218A mutant; source: E. coli Rosetta2 (DE3) pLysS, purified (glutathione Sepharose 4B, size exclusion)
T2 sequence (looked up): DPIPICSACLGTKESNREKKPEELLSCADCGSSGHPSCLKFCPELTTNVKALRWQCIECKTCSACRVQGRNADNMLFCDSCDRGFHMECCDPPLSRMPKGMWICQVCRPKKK

T3: MORF DPF domain (residues 211–322), wild type (human, UniProt Q8WYB5 211-322)
T3 construct: MORF (KAT6B) double PHD finger (DPF), residues 211–322; The methods say the GST tag was either cleaved with thrombin or left on; also called WT MORFDPF; DPF domain of MORF; source: E. coli Rosetta2 (DE3) pLysS, purified (glutathione Sepharose 4B, size exclusion); unlabeled or 15N-labeled
T3 sequence (looked up): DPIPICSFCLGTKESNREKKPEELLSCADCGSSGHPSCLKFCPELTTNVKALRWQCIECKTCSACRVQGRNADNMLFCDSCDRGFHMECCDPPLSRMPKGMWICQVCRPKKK


Experiments:
[1] = molecular target: T1, MORF DPF domain (residues 211–322) F287A; assay: NMR titration; 1H,15N HSQC at 298 K; H3 peptides (residues 1–19) titrated into 0.1–0.25 mM 15N-labeled WT or mutated MORFDPF in 1×PBS pH 6.5, 5 mM DTT, 8–10% D2O; conditions: both partners purified
[2] = molecular target: T1, MORF DPF domain (residues 211–322) F287A; assay: cell-based or functional assay
[3] = molecular target: T2, MORF DPF domain (residues 211–322) F218A; assay: other fluorescence titration; tryptophan fluorescence, 25 °C; 0.8–2 µM MORFDPF in PBS pH 6.5 with 5 mM DTT, increasing concentrations of H3 peptides (residues 1–19); excitation 295 nm; conditions: both partners purified
[4] = molecular target: T3, MORF DPF domain (residues 211–322), …; assay: as above; conditions: both partners purified

fold decrease in binding against the WT protein [1] [fold] | HAT activity of the MORFN F287A complex against the wild-type MORFN complex on H3K14cr peptide (residues 1–29), liquid HAT assay [2] [fold] | binding result [3] | Kd [4] [nM] | Binder
~1000 | – | – | – | ARTKQTARKSTGGKAPRKQ (peptide, UniProt P68431 2-20, looked up, histone H3 N-terminal tail, residues 1–19; source: synthetic peptide) [unmodified histone H3 peptide (residues 1–19 of H3)]
– | 2 | binds | 700 | ARTKQTARKSTGGK(Crotonyl(E))APRKQ (peptide, UniProt P68431 2-20, looked up, histone H3 N-terminal tail, residues 1–19; source: synthetic peptide) [histone H3K14cr peptide (residues 1–19 of H3)]
– | – | binds | – | ARTKQTARKSTGGK(Butyryl)APRKQ (peptide, UniProt P68431 2-20, looked up, histone H3 N-terminal tail, residues 1–19; source: synthetic peptide) [histone H3K14bu peptide (residues 1–19 of H3)]
